# Test results: the DeepSol protein solubility set
# Assay: soluble on expression in E. coli; label from the status in PepcDB or PDB records
row,Sequence,soluble on expression in E. coli
1,DGRRMVQGLLTASLLTSIGGDLEVLASRMDLQFQRPVYTGETLVCELTVVSADPHTDGGVALVGDVAVRRVNRDDNSGQADTAAP,not soluble
2,DGTVLPGPVPVTVAVRAPGDENDEDASGEASTPNAVRPRTSCRRDRFVAGIVRGTFHPDLYMCSQDCITFKGKRIGRSKFEKLGNSSMAKWHRSIRVIREDGELEPLGEWLTRHGLPVLKGKQRISRKRTIRI,not soluble
3,DGYIGVMIDDLVTKGTIEPYRLLTSRAEYRLILRHDNADMRLTEMGREIGLVDDERWARFEIKKNQFDNEMKRLDSIKLKPVKETNAKVEEMGFKPLTDAVTAKEFLRRPEVSYQDVVAFIGPAAEDLDDKIIELIETEIKYEGYISKAMDQVAKMKRMEEKRIPANIDWDDIDSIATEARQKFKLINPETIGQASRISGVNPADISILMVYLEG,not soluble
4,DIELTQSPATLSVTPGNSVSISCRASQSLVNEDGNTYLFWYQQKSHESPRLLIKYASQSISGIPSRFSGSGSGTDFTLSINSVETEDLAVYFCQQITDWPFTFGGGTKLEIKRADAAPTVSIFPPSSEQLTSGGASVVCFLNNFYPKDINVKWKIDGSERQNGVLNSWTDQDSKDSTYSMSSTLTLTKDEYERHNSYTCEATHKTSTSPIVKSFNRNEC,soluble
5,DIEVSEDVRKEQLGWLSCVSRAILKQNIITYSQPIVHAYSHLPASQECLVRILEEDGTVIAPGRFLPIISDTHLYTRLSRHMIRSTLHYMRDKKGDFSINLSPQDLLSDKTLMLLEHEISQLNDPTRIGLEVLESEQIKDYGRMIEVCSHFRKLGARIIVDDFGSGYSNIDEILKLEPEVIKLDGSLIRDIDKDLKQRKIASQLVRLCQVFNAETVAEFVHNREVCKIAQDMGVDYLQGYYLGEP,not soluble
6,DIGCYTLGNAPPLELIDTCLCMGAGISIAGGISRTTKNSKNVAFIGDSTFFHSGIPAVINAVYNNADVTIAVLDNRTTAMTGHQPHPGTGKTALGKPTKLIDIEGILKSCGVEFVKTVSADDFSACKEISKEVIEYNGPSAVVFRGNCVSLVKSDKKYVIDK,not soluble
7,DISEELDYERGRYLDAMIDNHKYTGKARAIIYGQPELALALAKVCFENGVNVKLIALGAKNKILEEALKEEIKSQREEVLVLDDTDFDTIEKYAKEFNVNLFIGNSDGRRMASRLGIEIIRVGFPIHDRV,not soluble
8,DIVMTQSHKFMSTSVGDRVSITCKASQDVSTAVAWYQQKPGQSPKLLISWASTRHTGVPDRFTGSGSGTDYTLTISSVQAEDLALYYCQQHYTTPLTFGAGTKLELKRADAAPTVSIFPPSSEQLTSGGASVVCFLNNFYPKDINVKWKIDGSERQNGVLNSWTDQDSKDSTYSMSSTLTLTKDEYERHNSYTCEATHKTSTSPIVKSFNRN,soluble
9,DKIAIIGSRRMSVYTKNCVFSLASMLKNAHLCVVSGGALGVDITASMAAMPNTIGIFANGLDQIYPRTNEKIIKQIYENALALSEYEDDYLPKNYDFLLRNRLVIALSKAVVVAQADIKSGSMQSAKLALELNKPLYVLPQRLGESTATNLLLKENKAKLICDFKEFVSEFASID,not soluble
10,DLSKNSDVAYLWCSSNKLTSLNLSGVKGLSVLVCHSNQIAGEEMTKVVNALPTLSPGAGAQSKFVVVDLKDTDEKNICTVKDVEKAKSKNWRVFDFNGDSDNMLPYEGSPTSNLAVDAPTVRIYPNPVGRYALVEIPESLLGQEAALYDMNGVKVYSFAVESLRQNIDLTHLPDGTYFFRLDNYTTKLIKQ,not soluble
11,DNNNTIEEQLNTLEKYSQGRLGVALINTEDNSQITYRGEERFAMASTSKVMAVAAVLKASEKQAGLLDKNITIKKSDLVAYSPITEKHLTTGMTLAELSAATLQYSDNTAMNKILDYLGGPAKVTQFARSINDVTYRLDRKEPELNTAIHGDPRDTTSPIAMAKSLQALTLGDALGQSQRQQLVTWLKGNTTGDNSIKAGLPKHWVVGDKTGSGDYGTTNDIAVIWPENHAPLILVVYFTQQEQNAKYRKDIIAKAAEIVTKEISNSPQTK,soluble
12,DNTQHYRELFLDDIPLMDVRAPVEYHKGAFPNTVNRPLMNDIERQKVGTSYKQHGQQAAIALGHELVCGALKAERLAAWKAFAEANPNGYLYCFRGGLRSQIVQQWLKQDAGIDYPRVIGGYKALRNFLFETTRAAVDECDFVLVGGLTGCGKTEVIAALDNSLDLEGHANHRGSSFGRRATPQPAQIDFENRLAIDILKKRHRGVGQFVLEDEGRIVGSCSLPLELYQGMQGYPLVWLEDAFEQRVERILRDYVIDLRSEFERVVGVEEGFAAFSAYLQKSLAGIVKRLGGERYQRLAAILVQALEEQGRDGSVDTHRGWIEGLLKEYYDPMYAFQRQSKEDRVEFRGNQAEVIGYLR,not soluble
13,DNYVGGIPLTSAHSGTVSGGVYCDSYYGMGDQEAKASNTIEKTFTVPDNANVEWAMLLTNVYCGHMQNNYQGKAKVDFNGKNLGTETLNVPYTYSYNGGNGHVQVNDHVNRVTSDYMMYYDVTGLVKAGKNTAVVKTDPLDSSFDGRIRLVTLVVAYNDGSKKTIWYQVNRGHDADSYYSDDEMNENYIGSTAFQAALPEGSSLTDSKLTLVYQASSDGAYAFNGNALSSGTPQGTFSGSNTWDVKDSLKSSGTNTLTYDRTASFYKSVLGILTAEYTTSSSGDSTDDTPADNTTDNGSAGDTTDDISSDNTTNDTSSDNTTSDVPAGNTTNDTPADNTTDAKFSADLGVQAIKVSHNSAAKAWKNLVNTVNVTVINNGPEKAGSFALELYSEGSLLESKPINGLANGATEAVEFVWKPEDAKNYTLRAVVVPGSTINDANATNNELSKTQEVMHNGYIGDKPLETYLHGTVKGNIIYDYGNSSYVKVSSGDVYTAGHSLSLPEGAIVKYARLYNFWTWSATGSSGVIPSMSLDFAGSSLTPEAEYADQKGWGQYDYPTGTWAYNVTGLVSGSGNYITTVKNTNSDAENSFCIDGIALLVVYEDASGKETQYWINEGCDAVSTMSSSGGLTPDEATVKIAFAGDSIDLGNVDNARLWTTVQSGGHEGIALKFNEMSISGVYDSTPSSNLDIDEARDVTSYLLSQNNEAQIIAPSVTDNSGDYMIPSSAILAVSYKSETTDDTNITDDTNVTDDTNVTDGTNVTDDTNVTDGTNVTNDTNVTNDTNVTNDTNVTNDTNVTNDTNVTNDTNVTDDTNVTDGTNVTDGTNVTIDTNVTIDTNVTIDTNVTDNTNVTDDTNMKDDTNVTLKVNIIPVISLTVSPDSLDFGTVSPGTPSESLPLALKNNGGISIKVTAEVHDQENGPFATGLLLDQNIWSNYSKVLAAESAETSQAQLDLPL,not soluble
14,DQLYALFDAFFDEDLSQSPEQATSLGLDTGKHADARSRLSDRSTAAWLRDRAEPAERIARLKTIDRKALSGDDAINYDTALFNYEARQGTSRFDFGDGARPFVLTQFYGSYISTPSFLDGRHKIASAADADAYLGRMKAFATVLDQETQRAGADAAKGVIPADFIVDKAIAQLQQFRSLPVEKNVLVASAARRAKAYGDYDAKAAAILTGEIHPALDRQIAALQAMRAKAVHDAGIGRLKDGDAFYAALLKIYTTTNKTPEEVHRLGLEEGAEIQARMDEILKKRGLTQGTVGQRMARLNTMPGQVFANTDEGRAELLAYCTERLAKLQPLLPQWFGVMPKTPVVVRRVPAYTEAGSAGAYYERPALDGSRPGAVYINLRDTAERPRWSLATLMHHEGAPGHHFQLALVAESNLPKLRQNMGFSANTEGWALYAEQVAMEMGIYDDGDDLGLLGMYQARLFRASRCVVDTGIHAKGWSREKAIAYMIETGGDPEVRVSREVERYCANPGQACSYKVGHTVWAALRERTKQRLGSKFDIKRFHDTALLVGPAPLTVLEGVLDRWQ,not soluble
15,DRPFKVGDWIRSPDRQIEGTVERIGWRMTSIRTFDKRPLYVPNSVFSNIVVENPSRMLNRRIYEVVGLRYDDADKVPEIITAVREMLKNHKDIDTRQT,not soluble
16,DSDWEDIHYAYFSAICQARKNVYIETPYFIPDESLLKAIKSAALSGVDVRIIFPKIADHKIVNIASYSYFEEILRAGGKVYLYNKGFIHSKVVIIDDKIASAGTANMDLRSFMLNFEVNAFIYDEEVIRVMTDDFFEDLSYCEELNLEVFKNR,not soluble
17,DTDMGLTRRLPPLSPNKEKQPDVEINDRNIMRILVNKNDEIILLKKGATGSQDQIIPVKLSDLRRITKEFIANPTNRADLPEKEKRE,not soluble
18,DYKDDDDKVKLYKTNKYGTLYKSESASFTANTDIITRLTGPFRSMPQSGVLRKGLTIKYDEVMKQDGHVWVGYNTNSGKRVYLPVRTWNESTGELGPLWGTIK,soluble
19,EAEERQRNMINKTHVGLLLIDGQGRIEEINPMAKRYFSLSDSMVRQLQAWSLFDTGNPNATVPLLLKNLTEHQELADITNVETVARRSDGSLFPVLFSLIAVSWKDRRHYLVTLIDIS,not soluble
20,EAISLSFEQRGQRRAILRDLSLGLAKGESLVVLGPSGCGKSTLLNILAGFQKPDQGRVQIDGRTLEGPGGERGVVFQDDALMPWLNALDNVALGLRIRGLGKAERTARARQVLQLVGLQEYAEQSVAQLSGGQRQRLGLARALAVEPDFLLLDEPFGALDALTRERMQVLLLDLWKQTGKGLFLITHSVDEALFLATDLVVMDGPPARIVKRLPVDFARRYAAGETVRSIKADPEFGRLRQALLDEFLDVAEA,not soluble
21,EALYVAGYLALYSKDEGELNITPEIVRSALPPTSKIPINIDHRKDCVVGEVIAIIEDIRGPFFLGIVRCPQLHAVLFEAAHSNFFGNRDSVLSPLERALYLVTNYLPSVSLSSKRLSPNEIPDGNFFTHVALCVVGRRVGTVVNYDCTPESSIEPFRVLSMESKARLLSLVKDYAGLNKVWKVSEDKLAKVLLSTAVNNMLLRDRWDVVAKRRREAGIMGH,soluble
22,EDFAKSIQDFIENGKTLEDFRKDFDKIVAKHGWQYNGGRNWRSRIIYETNLRSSYQAGRYAQLQELKETMPYWEYVHNDAVTYPRVEHMHWDGLILRHDDPWWKTHFPINAWGCQCTVI,not soluble
23,EDKYTDKYDNINLDEILANKRLLVAYVNCVMERGKCSPEGKELKEHLQDAIENGCKKCTENQEKGAYRVIEHLIKNEIEIWRELTAKYDPTGNWRKKYEDRAKAAGIVIPEE,soluble
24,EEKYVTVQPYTSQSKDEIGFEKGVTVEVIRKNLEGWWYIRYLGKEGWAPASYLKKAKD,soluble
25,EEPSSNEIHIGSLVIFPDAYVVSKRDETIELTHREFELLHYLAKHIGQVMTREHLLQTVWGYDYFGDVRTVDVTVRRLREKIEDNPSHPNWIVTRRGVGYYLRNPEQD,soluble
26,EFGYSEMSAIGALIKALPESCALHLANSSVIRYAQLYQVPSTIEVCCNRGTSGIEGSLSTAVGYAAGSDKLNFIVIGDLSFFYDMNALWNINVRPNLRILLLNNGGGEIFHTLPGLDMSGTSHKYITAVHKTSAKGWAEERGFLYQRVENEEQLAEAMKTFTQPEAMEQPVLMEVFSN,not soluble
27,EFVINPNGKSEVCILHEYMQRVLKVRPVYNFFECENPSEPFGASVTIDGVTYGSGTASSKKLAKNKAARATLEILIPDFVKQTSE,soluble
28,EGNITTVYFRSRDITAQKIAEKVLLDNERKLKTVYENSIQFLTVLDLDRKFIWFNKNARDRSPAVFGKDLIVGEVAESYIAKEYRTGFVENFNKAVAGETITYTRKYALNNAPFFLELSLAPVYNNDNTVVGVALTGIN,not soluble
